Reference: paper PMC5897774, “Mitotic spindle association of TACC3 requires Aurora‐A‐dependent stabilization of a cryptic α‐helix” (The EMBO Journal, 2018)
Values belong to the molecule of their own block, whether it stands above or below them. Non-standard residues stand in square brackets, D forms with d. No end group written: not given here. pS = N[C@@H](COP(=O)(O)O)C(=O)O; FAM = fluorescein label

T1: TACC3 546-573 pS558 (Homo sapiens, phospho-Ser558; FAM-labelled)
T1 chain: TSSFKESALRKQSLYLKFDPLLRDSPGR

T2: TACC3 552-567 pS558 (Homo sapiens, also: FAM-labelled, place not given here)
T2 chain: SALRKQ[pS]LYLKFDPLL

T3: FAM‐TACC3 549–570 phosphorylated on S558 (FAM‐phospho‐TACC3^CID) (human, UniProt Q9Y6A5 549-570, fluorescein (FAM) label; phosphoserine at 558)
T3 construct: TACC3, human, aa549–570 (TACC3^CID); also called pTACC3^CID; FAM‐labelled pTACC3^CID; source: FAM‐labelled peptide (FAM‐TACC3 peptides: PPR, Cambridge; Almac, Craigavon)
T3 peptide (looked up): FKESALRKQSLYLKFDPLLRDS

T4: FAM‐phospho‐TACC3^CID L559A (human, UniProt Q9Y6A5 549-570, L559A, fluorescein (FAM) label; phosphoserine at 558)
T4 construct: TACC3, human, aa549–570 (TACC3^CID); source: FAM‐labelled peptide (FAM‐TACC3 peptides: PPR, Cambridge; Almac, Craigavon)
T4 peptide (looked up): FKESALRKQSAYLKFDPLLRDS

T5: FAM‐phospho‐TACC3^CID Y560A (human, UniProt Q9Y6A5 549-570, Y560A, fluorescein (FAM) label; phosphoserine at 558)
T5 construct: TACC3, human, aa549–570 (TACC3^CID); source: FAM‐labelled peptide (FAM‐TACC3 peptides: PPR, Cambridge; Almac, Craigavon)
T5 peptide (looked up): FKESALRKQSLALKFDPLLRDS

T6: FAM‐phospho‐TACC3^CID F563A (human, UniProt Q9Y6A5 549-570, F563A, fluorescein (FAM) label; phosphoserine at 558)
T6 construct: TACC3, human, aa549–570 (TACC3^CID); source: FAM‐labelled peptide (FAM‐TACC3 peptides: PPR, Cambridge; Almac, Craigavon)
T6 peptide (looked up): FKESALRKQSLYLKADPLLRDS

T7: CHC 1–574 (clathrin heavy chain propeller‐ankle fragment) (UniProt Q00610 1-574)
T7 chain: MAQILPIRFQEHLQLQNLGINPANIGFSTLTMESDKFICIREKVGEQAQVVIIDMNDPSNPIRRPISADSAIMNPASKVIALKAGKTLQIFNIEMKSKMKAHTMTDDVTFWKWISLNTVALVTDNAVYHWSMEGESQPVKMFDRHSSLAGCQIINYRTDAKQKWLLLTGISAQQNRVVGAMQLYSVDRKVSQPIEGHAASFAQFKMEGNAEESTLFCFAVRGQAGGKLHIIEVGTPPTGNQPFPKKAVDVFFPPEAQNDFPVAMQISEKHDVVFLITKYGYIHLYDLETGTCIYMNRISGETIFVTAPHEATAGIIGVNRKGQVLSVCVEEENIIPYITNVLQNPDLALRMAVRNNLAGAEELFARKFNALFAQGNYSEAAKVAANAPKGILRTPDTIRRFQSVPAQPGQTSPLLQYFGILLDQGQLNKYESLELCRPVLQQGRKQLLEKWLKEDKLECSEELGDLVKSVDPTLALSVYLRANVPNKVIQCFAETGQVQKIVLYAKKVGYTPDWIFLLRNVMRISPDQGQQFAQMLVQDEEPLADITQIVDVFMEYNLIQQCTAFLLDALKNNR

T8: Aurora‐A 122–403 D274N (human, UniProt O14965 122-403, D274N)
T8 construct: also called Aurora‐A^KD D274N; source: expressed and purified as described in previous work (Burgess et al, 2015)
T8 sequence (looked up): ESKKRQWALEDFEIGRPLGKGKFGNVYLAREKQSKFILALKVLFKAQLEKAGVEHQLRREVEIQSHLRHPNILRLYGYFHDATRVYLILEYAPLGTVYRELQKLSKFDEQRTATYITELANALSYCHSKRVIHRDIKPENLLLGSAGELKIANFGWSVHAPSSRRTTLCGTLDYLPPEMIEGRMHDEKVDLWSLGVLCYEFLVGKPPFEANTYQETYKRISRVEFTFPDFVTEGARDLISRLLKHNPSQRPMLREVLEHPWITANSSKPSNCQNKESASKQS

B1: CHC 1–574 (clathrin heavy chain propeller‐ankle fragment) (domain or fragment, UniProt Q00610 1-574, looked up)
chain: T7 chain
notes: source: modified pGEX vector
B2: FAM‐non‐phosphorylated TACC3^CID (aa549–570) (peptide, UniProt Q9Y6A5 549-570, looked up)
peptide: {FAM}-FKESALRKQSLYLKFDPLLRDS
notes: TACC3, human, aa549–570 (TACC3^CID); also called unphosphorylated TACC3^CID peptide; S558; source: FAM‐labelled peptide (FAM‐TACC3 peptides: PPR, Cambridge; Almac, Craigavon)
B3: ^13C^15N TACC3 519–540 (domain or fragment, human, UniProt Q9Y6A5 519-540, looked up)
chain: ELKEESFRDPAEVLGTGAEVDY
modifications: also: 13C, 15N labelled
notes: TACC3, human, aa519–540 (stop codon at residue 541 of pETM6T1 TACC3 519–563); source: expressed and purified as described for 13C15N‐TACC3 519–563 (Burgess et al, 2015)

What was measured:
[1] = NMR chemical shift index analysis of TACC3 549–570 helicity; format: physicochemical; conditions: 2 mM peptide, 20 mM Tris pH 7.2, 50 mM NaCl, 290 K, αH and αC secondary shifts
Excerpt: We used NMR spectroscopy to determine the extent to which these α‐helices are present in TACC3 in the absence of binding partners in solution. Chemical shift index (CSI) plots were created for phosphorylated and unphosphorylated TACC3^CID following standard methods (Fig 7D and E; Wishart & Sykes, 1994). In addition to calculating α‐proton chemical shifts we also measured secondary chemical shifts for α‐carbons. After the type of amino acid, the main contribution to chemical shifts of α‐carbons is the ψ angle and thus the backbone conformation. Proximity of charges or aromatic side chains which can strongly affect proton chemical shifts has virtually no effect on the chemical shifts of α‐carbons which makes them very robust probes of backbone conformation. […] We concluded that phosphorylation of S558 increases the propensity for α‐helix formation in TACC3, and we examined the structure to identify the mechanism.
For analysis of TACC3 549–570 helicity, synthetic peptides were weighed in to give a sample concentration of 2 mM in 20 mM Tris pH 7.2 and 50 mM NaCl. Spectra were recorded at a temperature of 290 K on a Bruker Avance‐Neo 600 MHz spectrometer equipped with a prodigy cryoprobe. Peptides were assigned using 2D NOESY, TOCSY and 13C HSQC spectra recorded with watergate and gradient coherence selection, respectively. […]

[2] = target: WT Aurora‐A (of the FP assays) (human) (UniProt O14965)
[3] = target: FAM‐TACC3 522–536 (WT site 1 peptide) (human) (UniProt Q9Y6A5); assay: fluorescence polarisation; FAM‐TACC3 peptides with Aurora‐A; performed as in Richards et al, 2016; triplicate; one‐site total binding fit; Kd ± SE
[4] = target: FAM‐TACC3 522–536 F525A (human) (UniProt Q9Y6A5); assay: as above
[5] = target: FAM‐TACC3 522–536 L532A (human) (UniProt Q9Y6A5); assay: as above
[6] = target: FAM‐TACC3 522–536 R526A (human) (UniProt Q9Y6A5); assay: as above
[7] = target: FAM‐TACC3 522–536 phosphorylated on T534 (human) (UniProt Q9Y6A5); assay: as above
[8] = target: FAM‐WT TACC3 519–570 (human) (UniProt Q9Y6A5); assay: as above
[9] = target: T1, TACC3 546-573 pS558; assay: FP
[10] = target: T2, TACC3 552-567 pS558; assay: FP
[11] = target: The R555A mutation alone or in combination with K556A (FAM‐phospho‐TACC3^CID peptides); assay: fluorescence polarisation; CHC proteins serially diluted in 20 mM HEPES–NaOH pH 7.5, 200 mM NaCl, 5 mM DTT; 50 nM FAM‐labelled TACC3 peptide; 30 min at room temperature; read at 25°C
[12] = target: T3, FAM‐TACC3 549–570 phosphorylated on …; assay: as above; conditions: both partners purified
[13] = target: T4, FAM‐phospho‐TACC3^CID L559A; assay: as above; conditions: both partners purified
[14] = target: T5, FAM‐phospho‐TACC3^CID Y560A; assay: as above; conditions: both partners purified
[15] = target: T6, FAM‐phospho‐TACC3^CID F563A; assay: as above; conditions: both partners purified
[16] = target: B1; assay: as above; conditions: both partners purified
[17] = target: T7, CHC 1–574 (clathrin heavy chain …); assay: FP
[18] = target: T7, CHC 1–574 (clathrin heavy chain …); assay: FP
[19] = target: T8, Aurora‐A 122–403 D274N; assay: NMR titration; 13C/15N‐labelled TACC3 peptide (300 μM) alone and in complex with Aurora‐A 122–403 D274N; 20 mM KPO4 pH 7.0, 50 mM NaCl, 1 mM DTT; 298 K; chemical shift perturbation; conditions: both partners purified

propensity for helix formation (CSI) [1]: tendency towards helix formation
Molecule: FKESALRKQSLYLKFDPLLRDS [unphosphorylated peptide, synthetic TACC3 549–570 peptide, unphosphorylated, used for NMR]

32P‐ATP kinase assay with MBP as substrate: stimulation of Aurora‐A activity [2]: 8 fold
Molecule: TACC3 519–563‐H6c (WT TACC3^N‐ACIDH6c) (from UniProt Q9Y6A5 519-563) (domain or fragment)

Kd [3]: 20 µM
Kd [4]: 2300 µM
Kd [5]: 251 µM
Kd [6]: 49 µM
Kd [7]: 14 µM
Kd [8]: 3 µM
Molecule: WT Aurora‐A (of the FP assays) (from UniProt O14965 122-403) (domain or fragment)

Molecule: B1
Kd [9]: 39 µM
Kd [10]: 48 µM
fold reduction in affinity against WT [11]: 4 to 5 fold
fold increase in affinity against non‐phosphorylated TACC3^CID [12]: 4 fold
fold reduction in affinity against WT [13]: ≥ 4 fold
fold reduction in affinity against WT [14]: ≥ 4 fold
fold reduction in affinity against WT [15]: ≥ 4 fold

Molecule: B2
Kd [16]: 216 µM

Kd [17]: 345 µM
Molecule: {FAM}-FKESALRKQ[pS]LYLKFDPAARDS [FAM‐phospho‐TACC3^CID L566A, L567A]

Kd [18]: 209 µM
Molecule: {FAM}-FKESALAAQ[pS]LYLKFDPLLRDS [FAM‐phospho‐TACC3^CID R555A, K556A]

Molecule: B3
binding result [19]: binds
